Data: ChEMBL document CHEMBL2074447, “Transport of monoglucuronosyl and bisglucuronosyl bilirubin by recombinant human and rat multidrug resistance protein 2” (Hepatology, 1999)

How the values were obtained:
Assay type in all cases: functional, cell membranes, HEK293, Membrane vesicle
[1] = substrate: C=CC1=C(C)/C(=C/c2[nH]c(Cc3[nH]c(/C=C4\NC(=O)C(C)=C4C=C)c(C)c3CCC(=O)O[C@@H]3O[C@@H](C(=O)O)[C@H](O)[C@@H](O)[C@@H]3O)c(CCC(=O)O[C@@H]3O[C@H](C(=O)O)[C@H](O)[C@H](O)[C@@H]3O)c2C)NC1=O; assay: (§1) TP_TRANSPORTER: uptake in membrane vesicles from Mrp2-expressing HEK cells
[2] = substrate: C=CC1=C(C)/C(=C/c2[nH]c(Cc3[nH]c(/C=C4\NC(=O)C(C)=C4C=C)c(C)c3CCC(=O)O[C@@H]3OC(C(=O)O)[C@@H](O)C(O)C3O)c(CCC(=O)O)c2C)NC1=O; assay: as §1
[3] = substrate: C=CC1=C(C)/C(=C/c2[nH]c(Cc3[nH]c(/C=C4\NC(=O)C(C)=C4C=C)c(C)c3CCC(=O)O[C@@H]3O[C@@H](C(=O)O)[C@H](O)[C@@H](O)[C@@H]3O)c(CCC(=O)O[C@@H]3O[C@H](C(=O)O)[C@H](O)[C@H](O)[C@@H]3O)c2C)NC1=O; assay: (§2) TP_TRANSPORTER: uptake in membrane vesicles from MRP2-expressing HEK cells
[4] = substrate: C=CC1=C(C)/C(=C/c2[nH]c(Cc3[nH]c(/C=C4\NC(=O)C(C)=C4C=C)c(C)c3CCC(=O)O[C@@H]3OC(C(=O)O)[C@@H](O)C(O)C3O)c(CCC(=O)O)c2C)NC1=O; assay: as §2

Protein	Km [1] [µM]	Km [2] [µM]	Km [3] [µM]	Km [4] [µM]
ATP-binding cassette sub-family C member 2 (Rattus norvegicus) (protein) MDKFCNSTFWDLSLLESPEADLPLCFEQTVLVWIPLGFLWLLAPWQLYSVYRSRTKRSSITKFYLAKQVFVVFLLILAAIDLSLALTEDTGQATVPPVRYTNPILYLCTWLLVLAVQHSRQWCVRKNSWFLSLFWILSVLCGVFQFQTLIRALLKDSKSNMAYSYLFFVSYGFQIVLLILTAFSGPSDSTQTPSVTASFLSSITFSWYDRTVLKGYKHPLTLEDVWDIDEGFKTRSVTSKFEAAMTKDLQKARQAFQRRLQKSQRKPEATLHGLNKKQSQSQDVLVLEEAKKKSEKTTKDYPKSWLIKSLFKTFHVVILKSFILKLIHDLLVFLNPQLLKLLIGFVKSSNSYVWFGYICAILMFAVTLIQSFCLQSYFQHCFVLGMCVRTTVMSSIYKKALTLSNLARKQYTIGETVNLMSVDSQKLMDATNYMQLVWSSVIQITLSIFFLWRELGPSILAGVGVMVLLIPVNGVLATKIRNIQVQNMKNKDKRLKIMNEILSGIKILKYFAWEPSFQEQVQGIRKKELKNLLRFGQLQSLLIFILQITPILVSVVTFSVYVLVDSANVLNAEKAFTSITLFNILRFPLSMLPMVTSSILQASVSVDRLERYLGGDDLDTSAIRRVSNFDKAVKFSEASFTWDPDLEATIQDVNLDIKPGQLVAVVGTVGSGKSSLVSAMLGEMENVHGHITIQGSTAYVPQQSWIQNGTIKDNILFGSEYNEKKYQQVLKACALLPDLEILPGGDMAEIGEKGINLSGGQKQRVSLARAAYQDADIYILDDPLSAVDAHVGKHIFNKVVGPNGLLAGKTRIFVTHGIHFLPQVDEIVVLGKGTILEKGSYRDLLDKKGVFARNWKTFMKHSGPEGEATVNNDSEAEDDDDGLIPTMEEIPEDAASLAMRRENSLRRTLSRSSRSSSRRGKSLKNSLKIKNVNVLKEKEKEVEGQKLIKKEFVETGKVKFSIYLKYLQAVGWWSILFIILFYGLNNVAFIGSNLWLSAWTSDSDNLNGTNNSSSHRDMRIGVFGALGLAQGICLLISTLWSIYACRNASKALHGQLLTNILRAPMRFFDTTPTGRIVNRFSGDISTVDDLLPQTLRSWMMCFFGIAGTLVMICMATPVFAIIIIPLSILYISVQVFYVATSRQLRRLDSVTKSPIYSHFSETVTGLPIIRAFEHQQRFLAWNEKQIDINQKCVFSWITSNRWLAIRLELVGNLVVFCSALLLVIYRKTLTGDVVGFVLSNALNITQTLNWLVRMTSEAETNIVAVERISEYINVENEAPWVTDKRPPADWPRHGEIQFNNYQVRYRPELDLVLKGITCNIKSGEKVGVVGRTGAGKSSLTNCLFRILESAGGQIIIDGIDVASIGLHDLRERLTIIPQDPILFSGSLRMNLDPFNKYSDEEVWRALELAHLRSFVSGLQLGLLSEVTEGGDNLSIGQRQLLCLGRAVLRKSKILVLDEATAAVDLETDSLIQTTIRKEFSQCTVITIAHRLHTIMDSDKIMVLDNGKIVEYGSPEELLSNRGSFYLMAKEAGIENVNHTEL	0.5	0.8	–	–
ATP-binding cassette sub-family C member 2 (Homo sapiens) (protein) MLEKFCNSTFWNSSFLDSPEADLPLCFEQTVLVWIPLGYLWLLAPWQLLHVYKSRTKRSSTTKLYLAKQVFVGFLLILAAIELALVLTEDSGQATVPAVRYTNPSLYLGTWLLVLLIQYSRQWCVQKNSWFLSLFWILSILCGTFQFQTLIRTLLQGDNSNLAYSCLFFISYGFQILILIFSAFSENNESSNNPSSIASFLSSITYSWYDSIILKGYKRPLTLEDVWEVDEEMKTKTLVSKFETHMKRELQKARRALQRRQEKSSQQNSGARLPGLNKNQSQSQDALVLEDVEKKKKKSGTKKDVPKSWLMKALFKTFYMVLLKSFLLKLVNDIFTFVSPQLLKLLISFASDRDTYLWIGYLCAILLFTAALIQSFCLQCYFQLCFKLGVKVRTAIMASVYKKALTLSNLARKEYTVGETVNLMSVDAQKLMDVTNFMHMLWSSVLQIVLSIFFLWRELGPSVLAGVGVMVLVIPINAILSTKSKTIQVKNMKNKDKRLKIMNEILSGIKILKYFAWEPSFRDQVQNLRKKELKNLLAFSQLQCVVIFVFQLTPVLVSVVTFSVYVLVDSNNILDAQKAFTSITLFNILRFPLSMLPMMISSMLQASVSTERLEKYLGGDDLDTSAIRHDCNFDKAMQFSEASFTWEHDSEATVRDVNLDIMAGQLVAVIGPVGSGKSSLISAMLGEMENVHGHITIKGTTAYVPQQSWIQNGTIKDNILFGTEFNEKRYQQVLEACALLPDLEMLPGGDLAEIGEKGINLSGGQKQRISLARATYQNLDIYLLDDPLSAVDAHVGKHIFNKVLGPNGLLKGKTRLLVTHSMHFLPQVDEIVVLGNGTIVEKGSYSALLAKKGEFAKNLKTFLRHTGPEEEATVHDGSEEEDDDYGLISSVEEIPEDAASITMRRENSFRRTLSRSSRSNGRHLKSLRNSLKTRNVNSLKEDEELVKGQKLIKKEFIETGKVKFSIYLEYLQAIGLFSIFFIILAFVMNSVAFIGSNLWLSAWTSDSKIFNSTDYPASQRDMRVGVYGALGLAQGIFVFIAHFWSAFGFVHASNILHKQLLNNILRAPMRFFDTTPTGRIVNRFAGDISTVDDTLPQSLRSWITCFLGIISTLVMICMATPVFTIIVIPLGIIYVSVQMFYVSTSRQLRRLDSVTRSPIYSHFSETVSGLPVIRAFEHQQRFLKHNEVRIDTNQKCVFSWITSNRWLAIRLELVGNLTVFFSALMMVIYRDTLSGDTVGFVLSNALNITQTLNWLVRMTSEIETNIVAVERITEYTKVENEAPWVTDKRPPPDWPSKGKIQFNNYQVRYRPELDLVLRGITCDIGSMEKIGVVGRTGAGKSSLTNCLFRILEAAGGQIIIDGVDIASIGLHDLREKLTIIPQDPILFSGSLRMNLDPFNNYSDEEIWKALELAHLKSFVASLQLGLSHEVTEAGGNLSIGQRQLLCLGRALLRKSKILVLDEATAAVDLETDNLIQTTIQNEFAHCTVITIAHRLHTIMDSDKVMVLDNGKIIECGSPEELLQIPGPFYFMAKEAGIENVNSTKF	–	–	0.9	0.7
